Columns and labels:
[1] = molecular target: the molecule itself; assay: SAXS with inline size-exclusion chromatography
[2] = molecular target: the molecule itself; assay: crystal structure
[3] = molecular target: the molecule itself; assay: crystal structure; remark: listed apart in the source

B1: C-terminal domain of TrmJ of Escherichia coli (EcTrmJ167-246) (domain or fragment, E. coli, UniProt P0AE01 167-246, looked up)
chain: GEQVEHEETPYPLVDDLERFYGHLEQTLLATGFIRENHPGQVMNKLRRLFTRARPESQELNILRGILASIEQQNKGNKAE
With B1 the “stoichiometry N” value [1] was 2.

B2: N-terminal SPOUT domain of TrmJ of Escherichia coli (EcTrmJ1-164) (domain or fragment, E. coli, UniProt P0AE01 1-164, looked up)
chain: MLQNIRIVLVETSHTGNMGSVARAMKTMGLTNLWLVNPLVKPDSQAIALAAGASDVIGNAHIVDTLDEALAGCSLVVGTSARSRTLPWPMLDPRECGLKSVAEAANTPVALVFGRERVGLTNEELQKCHYHVAIAANPEYSSLNLAMAVQVIAYEVRMAWLATQ
In the case of B2, the “stoichiometry N” value [2] is reported as 2.

B3: N-terminal SPOUT domain of TrmJ of Sulfolobus acidocaldarius (SaTrmJ1-157) (domain or fragment, UniProt Q4JB16 1-157, looked up)
chain: MTIRLVIVEPEGAYNLGFIARLVKNFLIDEFYVVNPKADINEAIKFSAKGSEVIEKMMKITNNFDDAIRDVDLKIATSSIADIKGDLLRKSIRPIDLERLIKDKKVAFIFGRESVGLTREEIAKSDFLLFIPANPEYPVLNLSHAVGIVLYELWRNR
B3 was tested, and the “stoichiometry N” value [3] was 2.
